Laboratory results taken from doi:10.1101/2025.07.02.662713.

Target: CFP-MtbDarG MD (mCerulean-fused macrodomain of Mycobacterium tuberculosis DNA ADP-ribosylglycohydrolase DarG) (M. tuberculosis) (UniProt O53605)
Assay: FRET or BRET

CFP-MtbDarG MD (mCerulean-fused macrodomain of Mycobacterium tuberculosis DNA ADP-ribosylglycohydrolase DarG) (M. tuberculosis), sequence (O53605 1-155): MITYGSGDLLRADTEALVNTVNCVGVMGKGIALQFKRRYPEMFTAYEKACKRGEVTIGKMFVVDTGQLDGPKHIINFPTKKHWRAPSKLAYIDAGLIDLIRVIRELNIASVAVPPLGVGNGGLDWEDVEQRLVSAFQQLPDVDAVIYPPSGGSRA
PARylated YFP-GAP (mCitrine fused to a C-terminal Gαi 10-mer peptide, poly-ADP-ribosylated), sequence (P63096 whole entry, looked up, the tested form may be a part): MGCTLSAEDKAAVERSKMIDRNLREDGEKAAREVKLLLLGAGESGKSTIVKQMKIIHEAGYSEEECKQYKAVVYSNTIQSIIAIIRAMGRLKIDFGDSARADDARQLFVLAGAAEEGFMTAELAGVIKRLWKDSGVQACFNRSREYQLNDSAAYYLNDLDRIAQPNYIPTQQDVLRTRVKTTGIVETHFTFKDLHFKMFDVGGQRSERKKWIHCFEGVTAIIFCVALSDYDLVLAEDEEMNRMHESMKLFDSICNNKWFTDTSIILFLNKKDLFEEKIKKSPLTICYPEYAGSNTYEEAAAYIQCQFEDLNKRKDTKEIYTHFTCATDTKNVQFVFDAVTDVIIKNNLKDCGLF

## PARylated YFP-GAP (mCitrine fused to a C-terminal Gαi 10-mer peptide, poly-ADP-ribosylated) (from UniProt P63096 345-354)
  Kd: 316 nM
